Assay [1] concerns the target T1, human CXCL13 (human, UniProt O43927 23-109).
T1 construct: Recombinant protein bought from Peprotech (#300-47); In some assays native human CXCL13 from supernatant of IFN-gamma-stimulated THP-1 cells was used; this is said in the assay field; also called recombinant human CXCL13; rhuCXCL13
T1 sequence: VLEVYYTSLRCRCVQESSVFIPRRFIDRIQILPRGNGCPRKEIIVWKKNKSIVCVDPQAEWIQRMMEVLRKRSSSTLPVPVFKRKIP
In words: Specificity ELISA on recombinant human CXCL13 coated at 100 nM, OD 450/570, four-parameter sigmoidal fit. On the procedure: (§1) Each data point represents mean of triplicate measurements. EC50 values were calculated from four-parameter sigmoidal curve fit (R² for the curves that produced EC50 values were 0.99).

Assay [2] deals with T1, human CXCL13. Nature of the assay: SPR (Biacore), recombinant human CXCL13; printed as Affinity (Biacore), nM. Background: In SPR one partner is held on a chip, and binding of the other changes the refractive index at the surface.
For assay [3], the target named is T2, cynomolgus monkey CXCL13 (cynomolgus monkey, UniProt O43927 23-104 (human entry), limits assumed).
T2 construct: Recombinant; also called recombinant cynomolgus monkey CXCL13
T2 chain: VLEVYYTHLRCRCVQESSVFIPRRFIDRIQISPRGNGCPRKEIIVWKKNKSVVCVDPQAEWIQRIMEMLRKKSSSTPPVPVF
Nature of the assay: Specificity ELISA on recombinant cynomolgus monkey CXCL13 coated at 100 nM, OD 450/570, four-parameter sigmoidal fit. On the procedure:
as §1
(In an ELISA, binding on a coated surface is turned into a signal by an enzyme label.)

Assay [4] deals with T3, mouse CXCL13 (mouse, UniProt O55038 22-109).
T3 construct: Recombinant protein bought from Peprotech (#250-24); In some assays native mouse CXCL13 from organ extracts of TNF-alpha transgenic mice was used; this is said in the assay field; also called recombinant mouse CXCL13; rmuCXCL13
T3 sequence: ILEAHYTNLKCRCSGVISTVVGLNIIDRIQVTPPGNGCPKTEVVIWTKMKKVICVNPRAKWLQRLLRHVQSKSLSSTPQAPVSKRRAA
In words: Specificity ELISA on plate-coated recombinant mouse CXCL13, OD 450/570, four-parameter sigmoidal fit. Here is the method: (§2) Hybridoma clones were screened by ELISA for binding to human and mouse CXCL13 protein. ELISA plates were coated with about 100 nM of human (Peprotech: #300-47) or mouse (Peprotech: #250-24) CXCL13 protein overnight at room temperature (RT). […] The plates were washed and developed with tetramethylbenzidine (TMB) substrate reagents A and B (BD Biosciences: #555214) mixed at equal volumes for 15 minutes in the dark and read at 450/570 wavelengths. Two positive hybridoma clones, labelled “3D2” and “3C9”, both mouse IgG1 antibodies, were selected for further characterization.
(§3) Specificity of the hybridoma-produced mouse anti-human antibodies, 3D2 and 3C9, was assessed by ELISA (as described above) on a panel that included recombinant chemokines (Peprotech: mouse and human CXCL13, human IL-8/CXCL8 (#200-08), human IP-10/CXCL10 (#200-10), human MIG/CXCL9 (#300-26), human SDF-1alpha/CXCL12 (#300-28A) and cynomolgus monkey CXCL13) as well as several non-specific control antigens (recombinant human C35, streptavidin (Thermo: #21122), bovine serum albumin (BSA) (SeraCore: #AP-4510-01)), human serum albumin (HAS) (Sigma: #A8763), insulin (Gibco: #12585-014), and hemoglobin (Sigma: #H7379).

Assay [5] has as its target T2, cynomolgus monkey CXCL13. Nature of the assay: Specificity ELISA on plate-coated recombinant cynomolgus monkey CXCL13, OD 450/570, four-parameter sigmoidal fit. Here is the method: as §2, §3
In assay [6] the target is T1, human CXCL13. Nature of the assay: Capture Epitope Competition ELISA: recombinant human CXCL13 captured with MAb 801; unlabeled 3D2 inhibits binding of biotin-3C9; percent maximal response, four-parameter fit. On the procedure: (§4) Capture Epitope Competition ELISA was used to assess 3D2 binding to native human and mouse CXCL13. In this assay, native human CXCL13 was obtained from supernatants collected from human IFN-gamma-stimulated THP-1 cells. […] The plate was then incubated with biotinylated 3C9 in the presence of various amounts of unlabeled 3D2. […] As evident from FIG. 3A, 3D2 strongly bound to both native and recombinant human CXCL13 producing statistically similar EC50 values.

Assay [7] has as its target T3, mouse CXCL13. In words: Capture Epitope Competition ELISA: native mouse CXCL13 (TNF-Tg organ extract) captured with MAb 470; unlabeled 3D2 inhibits binding of biotin-3D2; percent maximal response, four-parameter fit. On the procedure: (§5) Mouse CXCL13-rich organ extracts from TNF-alpha transgenic mice were used as sources of native mouse CXCL13. Mouse CXCL13 (1:40 dilution of TNF-Tg organ extract or 0.5 nM rmuCXCL13) was captured with 33 nM MAb 470 and detected with 3.3 nM biotin-3D2. The chemokine from the extracts (and recombinant mouse CXCL13 which was used as a control) was captured on the ELISA plate by MAb 470. The plate was then incubated with biotinylated 3D2 in the presence of various amounts of unlabeled 3D2.

In assay [8] the target is T3, mouse CXCL13. In words: Capture Epitope Competition ELISA: native mouse CXCL13 captured with MAb 470; unlabeled competitor inhibits binding of 3.3 nM biotin-3D2; four-parameter fit. Here is the method:
For mouse ELISA, mouse CXCL13 (1:40 dilution of TNF-Tg organ extract) was captured with 33 nM MAb 470 and detected with 3.3 nM biotin-3D2. Each data point represents an average of duplicate measurements from one of at least three independent experiments. […] Curves shown in FIGS. 17A-B were fitted using four-parameter sigmoidal curve fit (R²=0.99).

The target in assay [9] is T3, mouse CXCL13. In words: Capture Epitope Competition ELISA: recombinant mouse CXCL13 captured with MAb 470; unlabeled 3D2 inhibits binding of biotin-3D2; percent maximal response, four-parameter fit. Here is the method:
as §5

Assay [10] concerns the target T3, mouse CXCL13. In words: SPR (BIACORE), recombinant mouse CXCL13, methods similar to Example 1; printed as Affinity, nM. Here is the method: (§6) Chemokines were immobilized on a C1 chip in Acetate buffer (pH=5) with human CXCL13 at 1 μg/ml, mouse CXCL13 at 0.3 μg/ml, and negative control SDF-1α at 0.5 μg/ml. 3D2 and 3C9 were diluted in HBS-EP buffer by two-fold from 100 nM to 0.78 nM and from 38 nM to […].

The target in assay [11] is T3, mouse CXCL13. Nature of the assay: SPR (Biacore), recombinant mouse CXCL13; printed as Affinity (Biacore), nM.
Assay [12] deals with T1, human CXCL13. Nature of the assay: SPR (BIACORE), recombinant human CXCL13, methods similar to Example 1; printed as Affinity, nM. On the procedure:
as §6

The target in assay [13] is T1, human CXCL13. In words: Specificity ELISA on plate-coated recombinant human CXCL13, OD 450/570, four-parameter sigmoidal fit. On the procedure: as §2, §3
Assay [14] has as its target T3, mouse CXCL13. Nature of the assay: SPR (BIACORE), recombinant chemokine immobilized on C1 chip, antibody in solution; printed as Affinity, nM. Here is the method:
as §6

For assay [15], the target named is T1, human CXCL13. The assay is described as above. Here is the method:
as §6

Assay [16] deals with T1, human CXCL13. In words: Capture Epitope Competition ELISA: native human CXCL13 (THP-1 supernatant) captured with MAb 801; unlabeled 3D2 inhibits binding of biotin-3C9; percent maximal response, four-parameter fit. On the procedure:
as §4

The target in assay [17] is T1, human CXCL13. In words: Specificity ELISA on recombinant human CXCL13 coated at 100 nM, OD 450/570, four-parameter sigmoidal fit. This is another data set of the same source.
The target of assay [18] is T2, cynomolgus monkey CXCL13. In words: Specificity ELISA on recombinant cynomolgus monkey CXCL13 coated at 100 nM, OD 450/570, four-parameter sigmoidal fit.
In assay [19] the target is T3, mouse CXCL13. In words: Specificity ELISA on recombinant mouse CXCL13 coated at 100 nM, OD 450/570, four-parameter sigmoidal fit. On the procedure:
For specificity ELISA, recombinant human, cynomolgus monkey, and mouse CXCL13 were each coated at 100 nM. […] The data points for each chemokine represents the mean of triplicate measurements. EC50 values were calculated from four-parameter sigmoidal curve fit (R² for the curves that produced EC50 values were 0.99).

Assay [20] deals with T3, mouse CXCL13. Described as above. On the procedure: as §1
The source holds these as a separate data set.

B1: 3D2 (antibody, mouse IgG1, V domains shown)
VH: EVQLQESGPGILQPSQTLNLTCSFSGFSLSTFGMGVGWIRQPSGKGLEWLAHIWWDDDRRYNPALKSRLTISKETSKNQVFLKIANVDTADTATYYCTRIAGYYGSRDWFAYWGQGTTVTVSS
VL: DIVLTQSPASLAVSLGQRATISCRASESVDNSGISFMHWYQQKPGQPPKLLIFRASDLESGIPARFSGSGSRTDFTLTVNPVETDDVATYFCQQSNKDPWTFGGGTKLEIK
notes: Hybridoma-produced mouse IgG1; also called mouse anti-human CXCL13 antibody 3D2; H1609/L0293
Usually EC50 stands for the concentration giving half of the maximal effect. A word on the Kd: it is a measure of binding affinity in units of concentration. Turning to B1, the EC50 in the assay with human CXCL13 [1] stood at 0.2 nM; in the assay with cynomolgus monkey CXCL13 [3], 8.9 nM; with mouse CXCL13 [4], 0.98 nM; with cynomolgus monkey CXCL13 [5] it was 0.8 nM; with human CXCL13 [6] it was 0.46 nM; in the assay with mouse CXCL13 [7] it was 11.2 nM. Besides, the EC50 was 11.2 nM with mouse CXCL13 [8], 12.5 nM in the assay with mouse CXCL13 [9], 1.1 nM in the assay with human CXCL13 [13] and 0.13 nM with human CXCL13 [16]. The Kd with human CXCL13 [2] amounted to 13 nM; with mouse CXCL13 [10] it was 159 nM; with mouse CXCL13 [11], 159 nM; with human CXCL13 [12], 13 nM; with mouse CXCL13 [14], 159 nM; with human CXCL13 [15] it was 12.9 nM.

B2: MAb 1476 (antibody, V domains shown)
VH: EVQLQESGPGILQPSQTLNLTCSFSGFSLSTFGMGVGWIRQPSGKGLEWLAHIWWDDDRRYNPALKSRLTISKETSKNQVFLKIANVDTADTATYYCTRIAGYYGSRDWFAYWGQGTTVTVSS
VL: DIVLTQSPASLAVSLGQRATISCRASESVDNSGISFMHWYQQKPGQPPKLLIFRASDLESGIPARFSGSGSRTDFTLTVNPVETDDVATYFCQQSNKDPWTFGGGTKLEIK
notes: Chimeric IgG1: 3D2 variable domains (H1609/L0293) on human gamma 1 heavy chain constant and human kappa constant; also called chimeric 3D2
As to B2, the Kd with human CXCL13 [2] stood at 11.4 nM. Also, the EC50 was determined as 0.07 nM in the assay with human CXCL13 [17] and 0.51 nM with cynomolgus monkey CXCL13 [18].

B3: MAb 5080 (antibody, human IgG1, V domains shown)
VH: QVQLQESGPGLVKPSETLSLTCTVSGFSLSTFGMGVGWIRQPPGKGLEWIAHIWWDDDRRYNPALKSRVTISKDTSKNQFSLKLSSVTAADTAVYYCARIAGYYGSRDWFAYWGQGTTVTVSS
VL: DIQMTQSPSSLSASVGDRVTITCRASESVDNSGISFMHWYQQKPGKAPKLLIFRASDLESGVPSGFSGSGSRTDFTLTISSLQPEDFATYYCQQSNKDPWTFGQGTKLEIK
notes: also called H2177/L5055
For B3, the values for the Kd with human CXCL13 [2] and in the assay with mouse CXCL13 [11] were 14.5 nM and 59.2 nM, respectively. Besides, the EC50 with mouse CXCL13 [8] stood at 24.3 nM; with human CXCL13 [17] it was 0.03 nM; with cynomolgus monkey CXCL13 [18], 0.06 nM; with mouse CXCL13 [19], 2.1 nM.

B4: MAb 5378 (antibody, V domains shown)
VH: QVQLQESGPGLVKPSETLSLTCTVSGFSLSTFGMGVGWIRQPPGKGLEWIAHIWWDDDRRYNPALKSRVTISKDTSKNQFSLKLSSVTAADTAVYYCARIAGYYGSRDWFAYWGQGTTVTVSS
VL: DIQMTQSPSSLSASVGDRVTITCRASESVDNMGISFMHWYQQKPGKAPKLLIFRASDLESGVPSRFSGSGSGTDFTLTISSLQPEDFATYYCQQSNKDPWTFGQGTKLEIK
notes: also called H5188/L5153
Consider B4, for which the figures for the EC50 with human CXCL13 [1], in the assay with mouse CXCL13 [20] and in the assay with cynomolgus monkey CXCL13 [3] were 0.2 nM, 3.4 nM and 0.3 nM, respectively. Moreover, the values for the Kd in the assay with mouse CXCL13 [10] and with human CXCL13 [12] were 4.2 nM and 4.5 nM, respectively.

The record behind these values is patent US20160002325A1 (VACCINEX, published 2016).
